± gives the standard deviation of the averaged measurements.
Experiments:
hTERT-HMEC = assay: percentage of EdU-negative (G0-arrested) nuclei per well, 72 h; higher = more G0 arrest; settings: reference: sequence is the full UniProt precursor, the tested protein was the secreted form or ectodomain
MCF7 = assay: as above; settings: reference: sequence is the full UniProt precursor, the tested protein was the secreted form or ectodomain
[1] = protein concentration 0.0171429 µM
[2] = protein concentration 0.171429 µM
[3] = protein concentration 0.0225 µM
[4] = protein concentration 0.03125 µM
[5] = protein concentration 0.3125 µM
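Note: secreted proteins added to cultured cells, EdU pulse at the end, nuclei found by Hoechst imaging, EdU status from nuclear versus surrounding ring intensity ratio, PBS as neutral control.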

Sequence	percentage of EdU-negative (hTERT-HMEC; [3]) [%]	percentage of EdU-negative (hTERT-HMEC; protein concentration 0.225 µM) [%]	percentage of EdU-negative (MCF7; [3]) [%]	percentage of EdU-negative (MCF7; protein concentration 0.225 µM) [%]	further results
MTPPRLFWVWLLVAGTQGVNDGDMRLADGGATNQGRVEIFYRGQWGTVCDNLWDLTDASVVCRALGFENATQALGRAAFGQGSGPIMLDEVQCTGTEASLADCKSLGWLKSNCRHERDAGVVCTNETRSTHTLDLSRELSEALGQIFDSQRGCDLSISVNVQGEDALGFCGHTVILTANLEAQALWKEPGSNVTMSVDAECVPMVRDLLRYFYSRRIDITLSSVKCFHKLASAYGARQLQGYCASLFAILLPQDPSFQMPLDLYAYAVATGDALLEKLCLQFLAWNFEALTQAEAWPSVPTDLLQLLLPRSDLAVPSELALLKAVDTWSWGERASHEEVEGLVEKIRFPMMLPEELFELQFNLSLYWSHEALFQKKTLQALEFHTVPFQLLARYKGLNLTEDTYKPRIYTSPTWSAFVTDSSWSARKSQLVYQSRRGPLVKYSSDYFQAPSDYRYYPYQSFQTPQHPSFLFQDKRVSWSLVYLPTIQSCWNYGFSCSSDELPVLGLTKSGGSDRTIAYENKALMLCEGLFVADVTDFEGWKAAIPSALDTNSSKSTSSFPCPAGHFNGFRTVIRPFYLTNSSGVD	–	–	–	–	percentage of EdU-negative (hTERT-HMEC; [1]): 6.12 ± 0.82%; percentage of EdU-negative (hTERT-HMEC; [2]): 8.84 ± 1.8%; percentage of EdU-negative (MCF7; [1]): 23.8 ± 3.7%; percentage of EdU-negative (MCF7; [2]): 27.9 ± 1.7%
MAKMNLSSYILILTFSLFSQGILLSASKSIRNLDDDMVFNTFRLGKGFQKEDTAEKSVIAPSLEQYKNDESSFMNEEENKVSKNTGSKHNFLNHGLPLNLAIKPYLALKGSVAFPAENGVQNTESTQEKREIGDEENSAKFPIGRRDFDMLRCMLGRVYRPCWQV	5.49 ± 0.6	5.82 ± 0.072	26 ± 2.4	26 ± 1.2	–
MEMLQGLLLLLLLSMGGAWASREPLRPWCHPINAILAVEKEGCPVCITVNTTICAGYCPTMMRVLQAVLPPLPQVVCTYRDVRFESIRLPGCPRGVDPVVSFPVALSCRCGPCRRSTSDCGGPKDHPLTCDHPQLSGLLFL	–	–	–	–	percentage of EdU-negative (hTERT-HMEC; [4]): 5.24 ± 1%; percentage of EdU-negative (hTERT-HMEC; [5]): 5.19 ± 1%; percentage of EdU-negative (MCF7; [4]): 25.1 ± 1.9%; percentage of EdU-negative (MCF7; [5]): 25.5 ± 0.84%
MVLCFPLLLLLLVLWGPVCPLHAWPKRLTKAHWFEIQHIQPSPLQCNRAMSGINNYTQHCKHQNTFLHDSFQNVAAVCDLLSIVCKNRRHNCHQSSKPVNMTDCRLTSGKYPQCRYSAAAQYKFFIVACDPPQKSDPPYKLVPVHLDSIL	4.8 ± 0.73	7.49 ± 1.4	25.2 ± 2.5	25 ± 4.7	–
MARSPGRAYALLLLLICFNVGSGLHLQVLSTRNENKLLPKHPHLVRQKRAWITAPVALREGEDLSKKNPIAKIHSDLAEERGLKITYKYTGKGITEPPFGIFVFNKDTGELNVTSILDREETPFFLLTGYALDARGNNVEKPLELRIKVLDINDNEPVFTQDVFVGSVEELSAAHTLVMKINATDADEPNTLNSKISYRIVSLEPAYPPVFYLNKDTGEIYTTSVTLDREEHSSYTLTVEARDGNGEVTDKPVKQAQVQIRILDVNDNIPVVENKVLEGMVEENQVNVEVTRIKVFDADEIGSDNWLANFTFASGNEGGYFHIETDAQTNEGIVTLIKEVDYEEMKNLDFSVIVANKAAFHKSIRSKYKPTPIPIKVKVKNVKEGIHFKSSVISIYVSESMDRSSKGQIIGNFQAFDEDTGLPAHARYVKLEDRDNWISVDSVTSEIKLAKLPDFESRYVQNGTYTVKIVAISEDYPRKTITGTVLINVEDINDNCPTLIEPVQTICHDAEYVNVTAEDLDGHPNSGPFSFSVIDKPPGMAEKWKIARQESTSVLLQQSEKKLGRSEIQFLISDNQGFSCPEKQVLTLTVCECLHGSGCREAQHDSYVGLGPAAIALMILAFLLLLLVPLLLLMCHCGKGAKGFTPIPGTIEMLHPWNNEGAPPEDKVVPSFLPVDQGGSLVGRNGVGGMAKEATMKGSSSASIVKGQHEMSEMDGRWEEHRSLLSGRATQFTGATGAIMTTETTKTARATGASRDMAGAQAAAVALNEEFLRNYFTDKAASYTEEDENHTAKDCLLVYSQEETESLNASIGCCSFIEGELDDRFLDDLGLKFKTLAEVCLGQKIDINKEIEQRQKPATETSMNTASHSLCEQTMVNSENTYSSGSSFPVPKSLQEANAEKVTQEIVTERSVSSRQAQKVATPLPDPMASRNVIATETSYVTGSTMPPTTVILGPSQPQSLIVTERVYAPASTLVDQPYANEGTVVVTERVIQPHGGGSNPLEGTQHLQDVPYVMVRERESFLAPSSGVQPTLAMPNIAVGQNVTVTERVLAPASTLQSSYQIPTENSMTARNTTVSGAGVPGPLPDFGLEESGHSNSTITTSSTRVTKHSTVQHSYS [J3KSI6]	4.92 ± 0.3	5.13 ± 0.22	25 ± 1.2	26.57 ± 0.18	–

Source: the supplement of paper PMC11316812
